# Experimental data taken from IntAct's records for PubMed 21960005.
# B1: Ran-binding protein 3 (Homo sapiens), Q9H6Z4 (parent)
# chain: MADLANEEKPAIAPPVFVFQKDKGQKSPAEQKNLSDSGEEPRGEAEAPHHGTGHPESAGEHALEPPAPAGASASTPPPPAPEAQLPPFPRELAGRSAGGSSPEGGEDSDREDGNYCPPVKRERTSSLTQFPPSQSEERSSGFRLKPPTLIHGQAPSAGLPSQKPKEQQRSVLRPAVLQAPQPKALSQTVPSSGTNGVSLPADCTGAVPAASPDTAAWRSPSEAADEVCALEEKEPQKNESSNASEEEACEKKDPATQQAFVFGQNLRDRVKLINESVDEADMENAGHPSADTPTATNYFLQYISSSLENSTNSADASSNKFVFGQNMSERVLSPPKLNEVSSDANRENAAAESGSESSSQEATPEKESLAESAAAYTKATARKCLLEKVEVITGEEAESNVLQMQCKLFVFDKTSQSWVERGRGLLRLNDMASTDDGTLQSRLVMRTQGSLRLILNTKLWAQMQIDKASEKSIRITAMDTEDQGVKVFLISASSKDTGQLYAALHHRILALRSRVEQEQEAKMPAPEPGAAPSNEEDDSDDDDVLAPSGATAAGAGDEGDGQTTGST
# partner: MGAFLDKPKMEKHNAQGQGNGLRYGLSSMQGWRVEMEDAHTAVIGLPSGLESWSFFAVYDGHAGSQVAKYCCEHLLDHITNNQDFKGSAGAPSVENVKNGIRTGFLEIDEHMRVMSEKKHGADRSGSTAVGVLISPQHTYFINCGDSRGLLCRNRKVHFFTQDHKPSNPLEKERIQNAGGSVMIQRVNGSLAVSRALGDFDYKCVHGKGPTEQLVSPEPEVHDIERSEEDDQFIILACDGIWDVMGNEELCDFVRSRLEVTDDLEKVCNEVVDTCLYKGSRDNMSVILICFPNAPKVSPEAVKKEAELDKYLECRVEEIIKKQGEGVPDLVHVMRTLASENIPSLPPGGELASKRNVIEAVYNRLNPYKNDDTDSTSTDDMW
# B2: Ran-binding protein 3 (Homo sapiens), Q9H6Z4 (parent)
# chain: B1 chain
# Variants of: B1
# Settings: with ppm1a_human PPM1A
row,Variant,effect of a mutation on the interaction
1,S57D,increasing interaction

# Variants of: B1
# Settings: with ppm1a_human PPM1A
# Remark: another data set of the same source
row,Variant,effect of a mutation on the interaction
1,S57A,decreasing interaction

# Variants of: B2
# Settings: with smad2_human SMAD2, Q15796
# smad2_human SMAD2, Q15796, sequence (Q15796 whole entry): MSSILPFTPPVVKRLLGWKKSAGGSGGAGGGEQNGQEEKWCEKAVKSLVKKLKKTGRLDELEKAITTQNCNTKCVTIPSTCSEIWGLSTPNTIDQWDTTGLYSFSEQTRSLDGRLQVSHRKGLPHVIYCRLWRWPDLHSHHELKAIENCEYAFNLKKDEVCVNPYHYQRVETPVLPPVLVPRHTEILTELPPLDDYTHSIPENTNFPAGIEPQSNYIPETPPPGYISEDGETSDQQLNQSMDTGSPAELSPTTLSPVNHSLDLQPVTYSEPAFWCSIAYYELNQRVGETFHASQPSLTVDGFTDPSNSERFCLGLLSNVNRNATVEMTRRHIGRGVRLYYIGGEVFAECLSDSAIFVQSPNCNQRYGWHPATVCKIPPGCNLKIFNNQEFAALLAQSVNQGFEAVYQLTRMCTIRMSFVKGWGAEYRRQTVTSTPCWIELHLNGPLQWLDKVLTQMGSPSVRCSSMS
row,Variant,effect of a mutation on the interaction
1,S57D,decreasing interaction
